Measured values: a protein production outcome set (Wang et al. 2014)

Assay: label from the status in PepcDB records
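Also: failed if final PepcDB status was selected cloned or expressed and not failed if soluble or beyond.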

Row | Sequence | protein production
1 | MKRLIVVYLLFISLNVLNAWAQKSPADYVNPIIGATTADEMAGSDHGLGKTFPGVCTPFGLVQLSPDTKTGGDNGPGYSWHHSTIEGFSFTHMSGIGWYGDLGNFLVMPTTGELHTFKGTEENPESGYRSRYSHDREVAKVDGYSVMLDDYGIQVELAAASRSGMMRFTYPQSEVSRIQIDLARRIGGTSTEQYVEVVDDYTIKGWMKCTPDGGGWGDGAGQGNYTAYFYCCFDRPLKNFGLWSADIPEGVERKNASNDDPAYHEYIKNAHVFPRKKIAQGKHLGFYTEFSTREGEQALLKCGISFVSIEGARKNLQSDISDWNFDGVRQRARRQWNEALSGVQVEGEEKDKTIFYTSLYHTMIDPRCFSDVDGAYPGADGKVHYADNFIYRTIFSGWDVFRSQFPLQTITNPRLVDDEINSLIQLAELSGKKYFPRWEFLNAYSGCMVGNPAVSVVADAYNKGIRNYDTRKALEYSLNTVRTFGNNEQGYTPDDLSKTLEYAYTDWCVSTMLRDMGREQEAVAFERKAQSYHQVWCDSVKWFRARSADGSWMPWKGRNVHWQGCIESNNYQQGWFVPHDLEGLISLMGKEYFERELVAFFEGADERFMWGDYYNHPNEPDHQVPFMLNYTSRPWLTQYWTRRICRNAYGDTVNGLCGNEDVGQMSAWYILAAMGFHPICPGNNRYELTSPVFRKVILSLDNRYYKGRTFTIIAHHNSPENVYIQSVSLNGKPLNRLWITHEEITKGGVLEFVLGKDPKH | failed
2 | ALIAGHFADPFSVLGMHRTDAGLEVRALLPDATDVWVIEPKTGRKVGKLECLDSRGFFSGVLPRRKNAFRYQLAVTWHGQQNLIDDPYRFGPLLQ | failed
3 | MREQLRAHGIGPNDIHTLLLSHFHADHIAGLRDFPRARILASEPGWRAVRGLSGLAAVRQAFLPGLLPPDMESRLSFVEAFALQALPADLAPFSHGRDVSGCGEVFVVDLPGHAAGHLGAFVLGDAGWTLLASDAAWSEEGYREMRGPSELSFLVQHSRRSYYDTLARLHALHRGGRVDILLTHQEETPCLEHHHHHH | failed
4 | MLIAILLLLLSIFNIFIGKKVKDKNLAHLLSGFDKEKDDLEYVSSVLGNTFKWIGNLGVIITAIYLILINSISVGLYLICYVGVIILFTVNLTFKTDRHRRSKLKASK | failed
5 | MAIEGKTTDVANKRIRLGMVGGGSGAFIGGVHRMAARLDNRFDLVAGALSSTPEKSLASGRELGLDSERCYGSFEEMAEKEALREDGIEAVAIVTPNHVHYPAAKAFLERGIHVICDKPLTSNLEDAKKLKDVADKADALFILTHNYTGYPMVRHARELVEAGALGNIRLVQMEYPQDWLTEAVEQTGAKQAVWRTDPAQSGVGGSTGDIGTHAYNLGCFISGLEADELAADVHTFVEGRRLDDNAHVMMRFKPKGGKQPARGMLWCSQVAVGHENGLKIRLYGDKAGLEWTQADPNYLWFTKLGEPKQLITRGGAGAGAAAARVTRIPSGHPEGYLEAFATIYTEAAHAIEARRTGSALDKAVIYPTVDDGVKGVAFVTACIESGKKNGGWVKL | failed
6 | MKTLEKVNYKGFIWPLAVGIVLWLITPWRPGGLSVQAWEMFAIFVATIVGCITKPLPIGGTTLLGMVVTVLVGLAPVKDVVNSKGVVIQTGILSSFGNSAAWLIAMAFIMAHGISKTGLGNRVAYVMIEKFGKRSIGIGYAITGLELMMGALIPSNSARTGGVTWPVVESISKSYDSKPNDPSRKKIGAYLDFMAFHANILSTALFITGAAPNLVAQQMAAQKGYQMSWVSWFWAALVPVLVATVIIPLVIYKMYPPEVKETPNAKNWADDKLKEMGPISKPEKIMATVFCLAILLWVLSGFFKIPQLDSAFVAFLAVTLLLITGVLSMEDALHETGAWNILIWLSILIFMAGKLISYGFIAWFAKFIQSEVHGINWGLVLVVLILLMFYTHYFFASGTAHMTALYLPFLTVATAMGAPLGLSAMLLAFTGVINASTTHYANGPASILATTGYVKQSEWWKMNFILGLIYMVIFGIVGTIWMKIIGIW | failed
7 | MAVSSNGGAIKAVIYDCDGVMFDSFEANLAFYQRIMEMMGRPRLSRDNEEQMRILHTYANREVLAHFFPSPGDWEEAVRCAGAIDYRELVPLMIMEEGFREALDTLKGRVGLGVCTNRSTSMDMVLRLFSLDSYFSIVMTASRVTNPKPHPEPLLKVLEHFGIGPREALFVGDSEVDRLSAEAAGVPFVAYKAPLPAAYRMEHHREIIDLLG | not failed
8 | MSKDVKPTRKNLMAIEDRIELSERGHDTLEKKRDGLIMEFMDILDQAQDVRSDLDENYERAQRNINMARAMEGDVAVRGAAAALKEHPEITTQSKNIMGVVVPQIESTKVKKSLDQRGYGLVGTSARIDEAADAYEELLETIILAAEVETAMKKMLDEIEKTKRRVNALEFKLLPELHEAQEYIEQKLEEQEREEIFRMKKIKAKKEEEEEENPVADTESAAEAAVTEAGQ | failed
9 | MEVPMDCPGCENKVRKALEKMNGVHDVQIDIKQQRVTVTGSAEQKKVLKVARNVTKRDICLWSYPYHPESNGYNDRYFKKKFRKRINMSVNGEKVSSYNYHKHGYHGHEHGYYQERPYSGLINPSASSMFSEENPHFCSIM | failed
10 | MNYRNKAFLKYEEDYFIERIIKALKDYEEIIIISNNPEEYKEFGLKVFKDIYPSQGPLSGIHSALNHIKNDYCLVVACDMPFINKDVVNYLGNIKEDYEILIPKFQERLQPLCAIYKKSCKDIMEKELINNSNKLIKTCFKFSMKVVEEFPFIEKVHKKEIKNFYNINTVDEYEDLIKKKEILEHHHHHH | failed
11 | MPKITVYTGKEVLQIDAKEGSSLLDILAENSLYVEAPCGGKGICGKCKVAVKKDGKPYLENITKEEKRLLTSDELQKGIRLCCNLKVFESLEVFLPHSKIGAKILSGLYTLEHHHHHH | failed
12 | MRIQTTFSRKLVLMSLLAVFCGCADVHSSVKGDAMVEQAKGGVLREIKVAETGEGARVVLSADRPLAYTFYKTADPPKAVIDLARTEPGAIASPMDVNSDTIRRIETVRYGEGATAMTRVEVYFTRDTEANATIDASDKGMLVLAVARPVAPAASVAVEAAPAAGQAGESSTGAPVAVAAAPAVAPAPVAVEPQAPIAPVVAPQTGPPVIKAIEAQNGYLVIETSGEIKDFKFFRLAKPDRLVVDISDARLGINSKAIPLNALGVGMARIGAYPDKVRIVLDAAGGTLSPLNVTKGAAGLIVAPADKVVDVPRAAAPPQPSASASQARQPEAVKSAEPAKGLTPAVDAIEFKVLDGTSRITVAVTGACANDKPVKSADGFSVTLRNCILPKKLQRHLDTGAFASVVQKVTPYQVKTKGRSDVKIQVQLRQPASYDVRRDGDLLQVSVRNPEGFEPPVADVPASPTLQDGMDQAAVRQKEPSRETDPLAGVAQSGGTKKAYTGRRVTLEFSDADIRKIFQLIAEVSNLNFLVGDDVTGTISLKLVNVPWDQALDVILENKGLGMQRDGNIVQIRPKSKIQTLADEEQALKRAKERGMELKTEVFDINFAAVGDIVSQFNAVKSERGTISQDARTNRVIVKDIEPALAEMRILLKNLDLPEKQVLIEARIVEATSTFTRDLGVQWGIHSNDSGADIIRSVDAGFGGIVTPPPASGFPAATSSGGAVGISFAKMGSLQVDLRLSAAAVAGLVKIVSTPKVVTLNNKAAKISQGQSIPYQTTSAEGTKTEFVEAALTLEVTPHITADGSVSMKIKASNNSAGTGSPPPINKKEATTELLVKNGETTVIGGIYVDSDTDEDRGVPFLMDIPVLGWLFKSNTKNKTKTELLIFITPKIVS | failed
13 | MSLGFVTAAYIIAALLFIMSLAGLSKHETAKAGCWYGISGMAIALFATIFGPQSYGTIWILIAMAIGGYIGIQKALKVEMTAMPELVAILHSFVGLAAVLVGFNSYGLHNDPLIPSNLDAVARANFIVEQQTLATIHYIEVFLGIFIGAVTFSGSLIAFGKLSGNLFGCKVSSVALNLPNKHKLNLAALIISGLLMMVFLNNPVNIFPVLIMTIIALALGWHLVASIGGADMPVVVSMLNSYSGWAAAAAGFMLSNDLLIVTGALVGSSGAILSYIMCKAMNRSFISVIAGGFGNEMKADSAAEQAQGEHRETTVEDVAEMLKNAHSVIITPGYGMAVAQAQYPVAEITAKLREKGINVRFGIHPVAGRLPGHMNVLLAEAKVPYDVVLEMDEINDDFENTDVVLVIGANDTVNPAALDDPSSPIAGMPVLEVWKAQNVVVFKRSMAVGYAGVQNPLFFKENTQMLFGDAKERVDDILRALN | failed
14 | MFVFIPLFTIFILLAGGYFAKRIGVLKQKQARTFLDFAIIFALPCLIFDKAYHLNFDFSLIIFIFIGLFSCILAAFFAILIGKVFHFSKVTLVSMFLLSCFGNTIFVGMPIVAGIFNDPQFSAEVIFYDALATTLPISLFGPFILSLGNGEKVSLLANVKKILSFPPFLALLFGFLCKLITLPEFIFSPIRLFGASATPVALFAIGLGLGFMAIKTSYKPTIVVIFTKMILAPLFFVFCLKIFNLELKDSTIVAIIESAAPTMTLAGAMVMKAKLDSNLAVSAVAFGVLFAFVSMPILIWTLL | failed
15 | MTDGEAVSAAAGPGAEGPPGPVGHWAPGSHILWRYRENGGPHVHIARPVTVVRDDADLLAVWLAPGTECVKPVLADGTPVHLEPLATRYTKPRTVQRDQWFGTGVLKLARPGEAWSVWLFWDPGWRFKNWYVNLERPLTRWEGGVDSEDHFLDISVHPDRTWHWRDEDEFAQALRDGLMDPASAGRVRRAGRSAVAEIRAWGSPFADGWEHWRPDPAWPVPSLPGDWDRTPAHVSS | not failed
16 | SPMPAGRPRFLRSMALSSQTREWLEKGMPTEAEAGVPIRLQERAANTAPQARAEERHTQPADAAAPHARAERGRTLQAPASTSPLYTGAVPRANRIVQQLVEAGADLANIRTMFRNMLRGEEMILSRAEQNVFLQHFPDMLPCGIDRNSELAIALREALRRADSQQAARAPARTPPRSS | not failed
17 | KLRQWLIDQIDSGKYPGLVWENEEKSIFRIPWKHAGKQDYNREEDAALFKAWALFKGKFREGIDKPDPPTWKTRLRCALNKSNDFEELVERSQLDISDPYKVYRIVPE | not failed
18 | MLSYYGRLSSEVYDIDKPIDHSFRDVEFYIDRLNLCRGHILEPATGTGRVLVPLLEKGFKVDGFDSSKDMLNICRDNCRKKGLNPKLFEAKMESFIQDTRYDAIIVPAGTFLLLHQRADSIRALQNFHKHLCSGGRLIIDILMQTDFSTGTVSTRTWVCSNGDLITLESKVVEVDYINQYTVSHNRYEKWREGVLIQTELERFPLRWYGLEEFKLILESTGFKDIVISSDYKFGQYPSNVKDVITFEAVAIN | failed
